Experimental findings from paper PMC10362042 are described below.

Several values for one entry are separate records, joined by “and”; a condition that tells them apart may be missing. Equal entries are not always repeated. Where two headings read alike, the source gives them in different places.

Common to all, as to assay: SPR
The target of assay [1] is Rabbit ACE2 (rabbit).
The target of assay [2] is Sheep ACE2 (sheep).
For assay [3], the target named is Goat ACE2 (goat).
The target in assay [4] is Pig ACE2 (pig).
Assay [5] deals with Pig ACE2 (pig). This is another data set of the same source.
Assay [6] concerns the target Dog ACE2 (dog).

Broadly, the Kd is the equilibrium constant for the complex coming apart. A lower Kd goes with tighter binding. On to “SARS-CoV-2 Omicron BA.1 RBD (residues 319-541) (from UniProt P0DTC2 319-541) (domain or fragment)”, for which the Kd in assay [1] is 60 nM and 43.7 nM; in assay [2] it was 62 nM and 66.8 nM and 71.5 nM; in assay [3] it was 174 nM and 180 nM (2×) and 188 nM.
Regarding “SARS-CoV-2 Omicron BA.2 RBD (residues 319-541) (from UniProt P0DTC2 319-541) (domain or fragment)”, the Kd in assay [1] is 76.3 nM and 53.8 nM and 59.3 nM; in assay [4], 719 nM and 678 nM; in assay [5], 654 nM and 662 nM; in assay [3] it was 111 nM and 102 nM and 106 nM (2×).
For “SARS-CoV-2 Omicron BA.4/5 RBD (residues 319-541) (from UniProt P0DTC2 319-541) (domain or fragment)”, the Kd in assay [6] is 211 nM and 146 nM and 186 nM; in assay [5] it was 6.1 nM and 7.2 nM and 8 nM; in assay [3], 29.1 nM and 26.2 nM and 25.3 nM.
